Source: article PMC2602806
Read-outs that look alike come from different tables or passages of the source.

Experiments:
Assay in all cases: X-ray crystallography
[1] = target: T1, VP1 RNA-dependent RNA polymerase (cVP1) (Simian rotavirus A SA11 (group A; …, UniProt O37061 1-1088)
T1 sequence: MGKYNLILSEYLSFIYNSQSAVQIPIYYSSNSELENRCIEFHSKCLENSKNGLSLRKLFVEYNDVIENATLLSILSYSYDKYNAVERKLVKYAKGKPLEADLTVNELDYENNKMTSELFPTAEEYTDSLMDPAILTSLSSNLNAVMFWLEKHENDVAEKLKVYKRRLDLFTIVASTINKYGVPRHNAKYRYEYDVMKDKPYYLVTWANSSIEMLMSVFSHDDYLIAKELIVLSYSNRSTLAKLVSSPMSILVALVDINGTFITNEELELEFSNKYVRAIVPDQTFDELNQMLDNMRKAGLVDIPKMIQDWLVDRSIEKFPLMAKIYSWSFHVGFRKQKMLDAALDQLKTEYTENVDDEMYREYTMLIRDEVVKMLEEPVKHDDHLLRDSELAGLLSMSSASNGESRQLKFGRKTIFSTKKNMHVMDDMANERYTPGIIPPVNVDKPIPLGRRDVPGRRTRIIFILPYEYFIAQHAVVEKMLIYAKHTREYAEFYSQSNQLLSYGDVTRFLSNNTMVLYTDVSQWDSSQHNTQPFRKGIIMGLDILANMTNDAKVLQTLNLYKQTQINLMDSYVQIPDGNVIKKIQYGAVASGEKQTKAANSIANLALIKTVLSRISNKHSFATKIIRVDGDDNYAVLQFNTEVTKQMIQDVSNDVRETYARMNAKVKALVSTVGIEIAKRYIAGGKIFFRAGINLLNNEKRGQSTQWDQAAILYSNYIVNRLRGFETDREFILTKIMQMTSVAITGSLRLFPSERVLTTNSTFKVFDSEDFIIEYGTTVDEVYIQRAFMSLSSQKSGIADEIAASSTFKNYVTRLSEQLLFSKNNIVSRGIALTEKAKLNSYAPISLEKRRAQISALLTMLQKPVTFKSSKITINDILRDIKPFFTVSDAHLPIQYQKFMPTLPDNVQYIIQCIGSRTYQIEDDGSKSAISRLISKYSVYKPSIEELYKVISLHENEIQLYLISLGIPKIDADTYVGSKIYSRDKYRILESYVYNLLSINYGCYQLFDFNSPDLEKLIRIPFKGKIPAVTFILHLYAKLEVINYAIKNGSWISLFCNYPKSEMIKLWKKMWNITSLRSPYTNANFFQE

[2] = target: T1, VP1 RNA-dependent RNA polymerase (cVP1); remark: listed apart in the source
[3] = target: T1, VP1 RNA-dependent RNA polymerase (cVP1); remark: listed apart in the source
[4] = target: T1, VP1 RNA-dependent RNA polymerase (cVP1); remark: listed apart in the source
[5] = target: T1, VP1 RNA-dependent RNA polymerase (cVP1); remark: listed apart in the source

B1: 5'CS+ (ssRNA)
RNA: GGCUUU
binding result [1]: binds

B2: 3'CS+ wild type (ssRNA)
RNA: UGUGACC
binding result [2]: binds

B3: 3'CS- (ssRNA)
RNA: AAAAGCC
binding result [3]: binds

B4: 3'CS+ A-insertion (ssRNA)
RNA: UGUGAACC
binding result [4]: binds

B5: 3'CS+ A3-deletion (ssRNA)
RNA: UGUGCC
binding result [5]: binds
